The source of these data is paper PMC4889922.

Assay [1] has as its target SHARP (human SPOC domain) SPOC domain, 3477-3664 (UniProt Q96T58). The assay is described as follows: anti-Flag co-IP, NCoR blot. To be noted: reference: NCoR-C wild type; sites S2449,S2451.
Substrate in assay [2]: SPOC domain from murine SHARP, residues 3474-3643 (mouse) (UniProt Q62504)
Nature of the assay: ITC.

Where no end group is shown, it is not given here. [ ]: non-standard residue; d: D form. pS = N[C@@H](COP(=O)(O)O)C(=O)O

Regarding “NCoR NCoR-C, 1942-2453 (from UniProt Q60974) NCoR-C S2449A/S2451A”, in assay [1], the “binding against the reference” value is recorded as “lost”.

As for REPAPLLSAQYETL[pS]D[pS]DD [NCoR C-terminal peptide, double-phosphorylated], in assay [2], the Kd amounted to 50 nM.
